Measured values from the DeepSol protein solubility set.

Test: soluble on expression in E. coli; label from the status in PepcDB or PDB records

Row | Sequence | soluble on expression in E. coli
1 | MLKKLKNFILFSSIFSPIAFAISCSNTGVVKQEDVSVSQGQWDKSITFGVSEAWLNKKKGGEKVNKEVINTFLENFKKEFNKLKNANDKTKNFDDVDFKVTPIQDFTVLLNNLSTDNPELDFGINASGKLVEFLKNNPGIITPALETTTNSFVFDKEKDKFYVDGTDSDPLVKIAKEINKIFVETPYASWTDENHKWNGNVYQSVYDPTVQANFYRGMIWIKGNDETLAKIKKAWNDKDWNTFRNFGILHGKDNSSSKFKLEETILKNHFQNKFTTLNEDRSAHPNAYKQKSADTLGTLDDFHIAFSEEGSFAWTHNKSATKPFETKANEKMEALIVTNPIPYDVGVFRKSVNQLEQNLIVQTFINLAKNKQDTYGPLLGYNGYKKIDNFQKEIVEVYEKAIK | soluble
2 | MLKQTFLLSALLFGLSACQSTDVAKQDTVPLQGSWHIEAVQGQPTVDYSPAQITFDAEGKISGNNSCNNFFGQYSQQGQELKIIPGGSTMKACVDALMQQEHKVMQALPLVAKAKLVEGRLTLLSSDDKAVFVLSQLK | soluble
3 | MLKRTRSLVCLCLAAAISSPTTYANSIDLPDIGTAAGGTLSIDQELIYGDAYMRMLRASKPIVNDPVINEYIDSLGHRLVANANDVKTPFHFFMIRDRNINAFAFFGGYVALHSGLFLHARSESELASVVAHEIAHVTQRHLARSMEDQARRSPATLAALAGALLLSIASPEAGMAAITAATAGNMQSQINYTRSNEKEADRFGIATLAKAGFDVQAMPRFFGRLADEYRYASKPPPMLLTHPLPEDRVADSRQRAQAYPPMRIAPSIDYHLARARIVARYAGIDGQAALGWFERTQKKASADIMPSFDYGRALVHLDNKRLSQAEPILKKLLAQDPGNPFYLDAMTDLYIEKKQPQKAVELLNSALKRNPQNKVLTINYANALLEANQNDQAVRTLQRYTHDNPEDSNGWQLLSKGYHALGRSDEELAARAEILALRANWNKAIQYYSEASKMAELGSLEQARYDARIDQLMIQRDRFMALQLEHHHHHH | soluble
4 | MLKSVLDALENGRLVELPDNDKSDALQFLATILEAVPSIPAGSNIVEIVLEHEKNSNTSLGFGWACPHARVNFDGDLCCAIGWSPAGIDYGIAGEPLVRLVVMFFVPENQRNTYLKEVSTLARVLKSNPEFQNLEPIGDLDQVRNTLLDMTHQAMSEGGKNYRARMIQLDTLTKSAGDAGHYWLKGMQIDALLVVAGPDIKPLVLSQNAELSRLATQDTQLVPAIASGNHYELQGWQIVRRSSTAYAGERVIYDCLAIKTRQGQGAPEAGG | soluble
5 | MLLDKLSRPLKVLRISLTDRCNLRCNFCMPPGKEYNFLPKRQLLTPEEIEEYVKIFAKLGVEKVRLTGGEPLLREDLEEIIQRISKVEGIKDIALTTNGVFLKERLKALKEAGLKRITVSVHSLNPEKNQKLVNRSVNLGEVFEVIIRAKELGFKVKVNSVIIKGFNDDEILDLARFFKNLGVTLRFIEYMDVGTVNDWDFSKVVSADEILNLMKKEFTFYPLPKRPEDTSMDFIYEDGNKFGIIASVTKPFCRGCNRIRLSADGKLYTCLFSDKGHDLRNAVDKENFIKEVWKDRKDRYSELRRQMKRERKVEMFKVGGLEHHHHHH | not soluble
6 | MLLDKLSRPLKVLRISLTDRCNLRCNFCMPPGKEYNFLPKRQLLTPEEIEEYVKIFAKLGVEKVRLTGGEPLLREDLEEIIQRISKVEGIKDIALTTNGVFLKERLKALKEAGLKRITVSVHSLNPEKNQKLVNRSVNLGEVFEVIIRAKELGFKVKVNSVIIKGFNDDEILDLARFFKNLGVTLRFIEYMDVGTVNDWDFSKVVSADEILNLMKKEFTFYPLPKRPEDTSMDFIYEDGNKFGIIASVTKPFCRGCNRIRLSADGKLYTCLFSDKGHDLRNAVDKENFIKEVWKDRKDRYSELRRQMKRERKVEMFKVGGMGHHHHHHSH | soluble
7 | MLLELPATNSALAIKSVLMAMTPNNDAILVVGERGHIINWQNDDNWQQLQSPVSVAITDVTILSDGSKVAVGHDGVILKVDSNSTTWRKVFTGKEITQFQIAQLKQQYQSLEQVILQTQDEDELEELTYQLDDLTFAIEDNQLELKSGPNKPLLSVTSTSNDTLFASGAYGILLSSKDKGETWQLVSNHLDNPDRFHLNTVIATADDQLYIVGENGMGFHSTDVGQTWSVMTLPYSGSLFGILANTVKTHTISTDDINSTKNKTQLVAFGLQGNIMVSLDGGGNWQHIKLPRSTSLLGGNFSKQGKVYLVGHGGVIVSFYPENLSTLTIKKHPSGAALSSVLVKDNSLILAGQFGISQWPIEAEELEHHHHHH | not soluble
8 | MLLGYCGSGYYGMQYNPPHKTIEGEILTKLFDVGAISEENSLAPKKNSFMAAARTDKGVHAMLNLLSLKITLREDTVAKLNAALPPEIRVWGIQPVNKKFNARSACDSRWYQYLIPEFILIGPPRSSLLHRNVGGCYREDGSQEVWDTFLEQTRGRFSGDELCRLQDTAQKLSESDPLVQDYVGLLSGTLSGYCLSPSKLDAFEAAMQEYVGTHNFHNFTTGKLWGDPSAQRHIKKVVVSQASPGWICVRIHGQSFMLHQIRRMVALAVLAARCQLPPNIVRNYFNAGPRKYIPRAPAQGLLLEGPVFDGYNTKLRNLLYCEIRPDDITLERMCRFRERQICTAIAHEETQRHVFCHFVRQMNRLATPLI | not soluble
9 | MLLKGLYKVEFETPRRKAVGVIFASDGRLHGGSSAFAYIGAYEQQGQTIQGTITARRHTSDPAIQSVFGVDEVRVDFHGSTIGDYAQVEGMAAEAPSLGFKALLTRISQ | not soluble
10 | MLLSGERIDQLYADDIQIIQSKEVFSFSIDAVLLANFPQLPKKGKIVDLCAGNGAVGLFVSRKTAAKIDQIELQPRLADMGQRSILLNKLEKQVTMYERDLKQATEVIKKDSVDLVLCNPPYFKERPTSQKNPNPHLAIARHEIHTSLQEVVTVSADLLKTNGRLAMVHRPDRFLDILHAMENANIAPKKARFVYPKPGKEANVLLIEGIKQGKKDGFRVLPPLFTYNEKNEYEAEMKAMLYGE | not soluble
11 | MLMFTEKEFAAFEVAGLDERMAVIRAQIQPIFQELDTYFAEQLAPELGTELFVHIAQHRRRTVYPPENTWSALSPNKRGYKMQPHFQLGIWGDYVFMWLSFIDNPKNEKQIAQAFLENQQLFQALPEDTYVSLDHTVPQITPLPETDLEKALTRFRDVKKGEFEIGRIIPKDSDLWQNPEKARAYMLATYQQLLPLYQLAVAQ | not soluble
12 | MLNEIICAGFGGQGVLTAGKIIMYVAYKAEKKITWFPSYGNEMRGGSANCNVVVSDEKIANPCVKNPDILLGMNSVSVDKYESLMKKNGYMFVNESLVSKDRKYREDINVIKVPVTEIAQNLGNEKAANICMLGAMVKSLDLFTKEEFESGMCEYFENQGKGKFNSKNVEAFEAGYDYE | not soluble
13 | MLNPLRALTLGGLLLFSTLGHAAPAAPDALRIGYQKGSVSMVLAKSHQLLEQRYPQTHISWIEFPAGPQMLEALNVGSIDIGSTGDIPPIFAQAAGADLVYIGAEPPKPKAEVILVAQGSPIHNVAELKGKKVAFQKGSSSHNLLLRALQLAGLKFSDIQPVYLAPADARAAFQQGNVDAWAIWDPYYSAALLQGGARVLTDGTDLKQTGSFYLASRPYAERNGAFIEGVLDTFTQADALTHSQRAQSITLLAKTMGLPEAVIASYLDHRPPTAVTPVSAETAARQQQTADLFYENKLVPKKVDIRARIWQPTATQGAKS | not soluble
14 | MLNQELELSLNMAFARAREHRHEFMTVEHLLLALLSNPSAREALEACSVDLVALRQELEAFIEQTTPVLPASEEERDTQPTLSFQRVLQRAVFHVQSSGRNEVTGANVLVAIFSEQESQAAYLLRKHEVSRLDVVNFISHGTRKDEPTQSSDPGSQPNSEEQAGGEERLENFTTNLNQLARVGGIDPLIGREKELERAIQVLCRRRKNNPLLVGESGVGKTAIAEGLAWRIVQGDVPEVMADCTIYSLDIGSLLAGTKYRGDFEKRFKALLKQLEQDTNSILFIDEIHTIIGAGAASGGQVDAANLIKPLLSSGKIRVIGSTTYQEFSNIFEKDRALARRFQKIDITEPSIEETVQIINGLKPKYEAHHDVRYTAKAVRAAVELAVKYINDRHLPDKAIDVIDEAGARARLMPVSKRKKTVNVADIESVVARIARIPEKSVSQSDRDTLKNLGDRLKMLVFGQDKAIEALTEAIKMARAGLGHEHKPVGSFLFAGPTGVGKTEVTVQLSKALGIELLRFDMSEYMERHTVSRLIGAPPGYVGFDQGGLLTDAVIKHPHAVLLLDEIEKAHPDVFNILLQVMDNGTLTDNNGRKADFRNVVLVMTTNAGVRETERKSIGLIHQDNSTDAMEEIKKIFTPEFRNRLDNIIWFDHLSTDVIHQVVDKFIVELQVQLDQKGVSLEVSQEARNWLAEKGYDRAMGARPMARVIQDNLKKPLANELLFGSLVDGGQVTVALDKEKNELTYGFQSAQKHKAEAAH | soluble
15 | MLNSEKMIASLDQQDLAHAEKYFQKALKEDDADSLIALGEYLESIGFLPHAKRIYLQLADDYPELNINLAQIAAEDDAIEEAFLYLDKVSKDSPNYLSALLVMADLYDMEGLTEVAREKLLQAVGISPEPLVIFGLAEIDMSLQHFKEAIDYYAQLDNRQILELTGISTYQRIGRAYASLGKFEAAIEFLEKAVAIEYEDETVFELATLMYDQENYQKANLYFKQLETINPDYPGYEYGYALSLHEEHKTSEALRLVQQGLRKNAFDSQLLLLASQLSYELHDRQNAENYLLQAKEVAVDDEEILMRLVTLYFDAERFEEVIALNRETIDNVLTKWTIAKAYHALEQEEVALALYNEISADLAENPEFLQDYAYLLREFGQFHKAIQMATAYLRQVPDDVNMQDFLDHIKHQQSE | not soluble
16 | MLPDPPRDPFNNLDPAQTVRVLPRHLAGPGQADLETIWAFPFDDGWHLHQGLEGMVFAISPCARLWTRFAPKPEERGADTWTIGMDRAPFGPRAWEITFDATTPAELLRDVHTELLDLYLEDRHSEKNHLVEDPTAPHEVYTPLLTHGWSHSVKTDGTQTFLPPEGLGGVRHRYATTGSDGPVWRAWGGYPSAPHWQAQFSAGAPTTLAAAFTASLISTEPLHRAVKQIPFHTRRHLYVAPAAAPQPPSHLPPAPPSAPHPAGRARLEHHHHHH | soluble
17 | MLPETTTLQPLPSVTTIMNEPPARSPMEDYYLFNQFQYNQNPYVYPPQPVYYNTWQDASTHHFDPFQSYQIPSPYEQPIQSSMCTTPLQPLEDSRIIFDESLTKNENEQKSFVEQDSSYESSGNRFGSQKGKKIAKVIRDACCSHCSTTTTTLWRKNDEGNLECNACNLYYRHNKVKRPLSLCKQKPTTRKRRQAKKE | not soluble
18 | MLPIIYSLRNCPYAMRARLAIFKAKQAVLLRDLVLSHKPAEMIAVSPKGTVPVLVLANSTVIEESLEVMLWALQQTDPDDLLHCQQEGALPEMLSLINEFDNGFKTSLEAYKCAKRYQEDNIAQCRVVCQQYIEQLEQRLTEHMFLMSDKESLADIALVPFIRQFARVERQWYLQSPYPRVRRWLNSYLQSPVFTKVMAKHPLWLDNQQDILFGVN | not soluble
19 | MLPPYNYMDNGTLKGISIDLLEAITEKMGKKVTREEIHLVSWTEGYQAALTRNNTVLFVTARTPEREQSFKWVGPIYSDKYVLFAKRDPGVTIDGPEDLKEYRIGVISDDVAAQQLLNIGVNQSQLEHHHHHH | not soluble
20 | MLPTILALLLAPLATALPPTIIRSPKVTGWGWWSEMESCPPGYFAHGMRIKYERDSGSLDETGLNAIELACKNRAVPSSGDTYIKGAEGVFGGWQAYQYCPQGEYVIGFALQSESWRGGNKDDVAANNFAAYCGRPEAPRRRYSWIQGSVNERGSWTRDQFCPARQIVCGIIVQIEPAQAPHVDDASLDSVGLKCCDF | not soluble
21 | MLQIIVPMAGAGSRFAVAGYTDPKPLIPVHGVPMIKVVIDNLTPDCPHRFIFICQAEQVAAYGLREKLNAWAPGCGIVELGGLTGGAACTVYAARHLINYDQQVMIANSDQYVDVDINAYLHAMNECDAAGLIMTMKASDPKWSFVGFDSQGHINRVVEKEVISDEATVGIYNFRSGGQLVSAIEAMVLKDLRVNGEFYVAPAYNELIEQGAKVIHYSIGAEGHGMYGLGIPVDLNLFLSLPLSRQAASGVGNLEHHHHHH | not soluble
